The record followed here is article PMC4773402, “Comparison of the aggregation of homologous β2-microglobulin variants reveals protein solubility as a key determinant of amyloid formation” (Journal of Molecular Biology, 2016).

The data set deals with the molecule itself. In words: AUC; sedimentation velocity, 25 °C, 48,000 rpm, 50 μM protein, pH 2.5 buffer with 0.3 M NaCl, absorbance at 280 nm, SEDFIT.

B1: mouse β2-microglobulin (natural protein, UniProt P01887 21-119, looked up)
chain: IQKTPQIQVYSRHPPENGKPNILNCYVTQFHPPHIEIQMLKNGKKIPKVEMSDMSFSKDWSFYILAHTEFTPTETDTYACRVKHASMAEPKTVYWDRDM
notes: β2-microglobulin, mouse; In the AUC the protein was acid-unfolded at pH 2.5; also called mβ2m; source: expressed and prepared as described previously [47]; purified (anion exchange at pH 8.5, gel filtration), lyophilised
As to B1, the binding result is “binds”.
